From patent publication US5091312A

Substrate: CNCC(=O)O
Assay: purified protein, by the assay type
Conditions: other: 37° C., pH 8.0

B1: sarcosine oxidase (E.C.1.5.3.1) from Streptomyces sp. KB210-8SY (Streptomyces sp. KB210-8SY) (protein)
chain: SPTYDVIVIGLGGMGSAAAHHLSARGARVLGLEKFGPVHNRGSSHGGSRITRQSYFEDPAYVPLLLRAYELYEELERATGRNVATLCGGVMAGPPDSRTVSGSLRSATEWDLAHEMLDAKEIRRRFPTLAPDDDEVALFEAKAGLLRPENMVAAHLQLATRQGAELRFEEPVLRWEPYRDGVRVHTGENTYTAGQLVICPGAWAPQLLADIGVPITVERQIMYWFQPKGGTGPFVPERHPVYIWEDADGVQVYGFPAIDGPEKGAKVAFFRKGQHTTPETIDRTVHAHEVRAMADHMSALIPDLPGTFLKAATCMYSNTPDEHFVIARHPAHPESVTVACGFSGHGFKFVPVVGEILADLALTGATAHPIGLFDPARLTAPAARGVQP
Km: 910 µM
